Test results from the Human Domainome abundance scans (Beltran et al. 2025).
± gives the uncertainty stated by the source.

B1: Bromodomain adjacent to zinc finger domain protein 2B, residues 1927 to 1982; numbered along this chain, Q9UIF8 (parent)
chain: KSIMKVYCQICRKGDNEELLLLCDGCDKGCHTYCHRPKITTIPDGDWFCPACIAKA

Variants of: B1
Assay: abundance fitness (aPCA) (normalised: wild type 0, dead -1); higher = more abundant; growth selection in yeast, the domain comes from the species named
Details: Homo sapiens

KSIMKVYCQICRKGDNEELLLLCDGCDKGCHTYCMRPKITTIPDGDWFCPACIAKA [H35M] and KSIMKVYCQICRKGDNEELLLLCDGCDKGCHTYCPRPKITTIPDGDWFCPACIAKA [H35P] are within error of each other in abundance fitness: 0.002 ± 0.11 for the first, -0.093 ± 0.11 for the second.

Going from KSIMKVYCQICRKGDNEELLLLCDGCDKGCHTYCYRPKITTIPDGDWFCPACIAKA [H35Y] to KSIMKVYCQICRKGDNEELLLLCDGCDKGCHTYCKRPKITTIPDGDWFCPACIAKA [H35K], the abundance fitness rises from -0.201 ± 0.1 to 0.024 ± 0.12.

KSIMKVYCQICRKGDNEELLLLCDGCDKGCHTYCFRPKITTIPDGDWFCPACIAKA [H35F] and KSIMKVYCQICRKGDNEELLLLCDGCDKGCHTYCIRPKITTIPDGDWFCPACIAKA [H35I] are within error of each other in abundance fitness: -0.109 ± 0.11 for the first, -0.019 ± 0.19 for the second.

KSIMKVYCQICRKGDNEELLLLCDGCDKGCHTYCCRPKITTIPDGDWFCPACIAKA [H35C] and KSIMKVYCQICRKGDNEELLLLCDGCDKGCHTYCARPKITTIPDGDWFCPACIAKA [H35A] are within error of each other in abundance fitness: -0.084 ± 0.14 for the first, 0.021 ± 0.075 for the second.

KSIMKVYCQICRKGDNEELLLLCDGCDKGCHTYCGRPKITTIPDGDWFCPACIAKA [H35G] and KSIMKVYCQICRKGDNEELLLLCDGCDKGCHTYCQRPKITTIPDGDWFCPACIAKA [H35Q] are within error of each other in abundance fitness: -0.102 ± 0.075 for the first, -0.09 ± 0.097 for the second.

KSIMKVYCQICRKGDNEELLLLCDGCDKGCHTYCERPKITTIPDGDWFCPACIAKA [H35E] and KSIMKVYCQICRKGDNEELLLLCDGCDKGCHTYCWRPKITTIPDGDWFCPACIAKA [H35W] are within error of each other in abundance fitness: -0.169 ± 0.093 for the first, -0.18 ± 0.091 for the second.

KSIMKVYCQICRKGDNEELLLLCDGCDKGCHTYCDRPKITTIPDGDWFCPACIAKA [H35D] and KSIMKVYCQICRKGDNEELLLLCDGCDKGCHTYCVRPKITTIPDGDWFCPACIAKA [H35V] are within error of each other in abundance fitness: 0.001 ± 0.14 for the first, -0.052 ± 0.083 for the second.

KSIMKVYCQICRKGDNEELLLLCDGCDKGCHTYCNRPKITTIPDGDWFCPACIAKA [H35N] and KSIMKVYCQICRKGDNEELLLLCDGCDKGCHTYCLRPKITTIPDGDWFCPACIAKA [H35L] are within error of each other in abundance fitness: -0.09 ± 0.15 for the first, 0.027 ± 0.065 for the second.

KSIMKVYCQICRKGDNEELLLLCDGCDKGCHTYCSRPKITTIPDGDWFCPACIAKA [H35S] and KSIMKVYCQICRKGDNEELLLLCDGCDKGCHTYCRRPKITTIPDGDWFCPACIAKA [H35R] are within error of each other in abundance fitness: -0.105 ± 0.077 for the first, -0.137 ± 0.073 for the second.

KSIMKVYCQICRKGDNEELLLLCDGCDKGCHLYCHRPKITTIPDGDWFCPACIAKA [T32L] and KSIMKVYCQICRKGDNEELLLLCDGCDKGCHIYCHRPKITTIPDGDWFCPACIAKA [T32I] are within error of each other in abundance fitness: 0.026 ± 0.079 for the first, 0.004 ± 0.11 for the second.

KSIMKVYCQICRKGDNEELLLLCDGCDKGCHNYCHRPKITTIPDGDWFCPACIAKA [T32N] and KSIMKVYCQICRKGDNEELLLLCDGCDKGCHKYCHRPKITTIPDGDWFCPACIAKA [T32K] are within error of each other in abundance fitness: -0.133 ± 0.2 for the first, -0.156 ± 0.1 for the second.

Compared with KSIMKVYCQICRKGDNEELLLLCDGCDKGCHPYCHRPKITTIPDGDWFCPACIAKA [T32P], KSIMKVYCQICRKGDNEELLLLCDGCDKGCHVYCHRPKITTIPDGDWFCPACIAKA [T32V] is higher in abundance fitness: -0.271 ± 0.11 for the first, -0.053 ± 0.079 for the second.

KSIMKVYCQICRKGDNEELLLLCDGCDKGCHQYCHRPKITTIPDGDWFCPACIAKA [T32Q] and KSIMKVYCQICRKGDNEELLLLCDGCDKGCHMYCHRPKITTIPDGDWFCPACIAKA [T32M] are within error of each other in abundance fitness: -0.131 ± 0.12 for the first, -0.048 ± 0.1 for the second.

KSIMKVYCQICRKGDNEELLLLCDGCDKGCHSYCHRPKITTIPDGDWFCPACIAKA [T32S] and KSIMKVYCQICRKGDNEELLLLCDGCDKGCHYYCHRPKITTIPDGDWFCPACIAKA [T32Y] are within error of each other in abundance fitness: 0.052 ± 0.091 for the first, -0.019 ± 0.17 for the second.

KSIMKVYCQICRKGDNEELLLLCDGCDKGCHWYCHRPKITTIPDGDWFCPACIAKA [T32W] and KSIMKVYCQICRKGDNEELLLLCDGCDKGCHRYCHRPKITTIPDGDWFCPACIAKA [T32R] are within error of each other in abundance fitness: -0.141 ± 0.096 for the first, -0.078 ± 0.071 for the second.

KSIMKVYCQICRKGDNEELLLLCDGCDKGCHTYIHRPKITTIPDGDWFCPACIAKA [C34I] and KSIMKVYCQICRKGDNEELLLLCDGCDKGCHTYWHRPKITTIPDGDWFCPACIAKA [C34W] are within error of each other in abundance fitness: -0.961 ± 0.19 for the first, -0.895 ± 0.11 for the second.

KSIMKVYCQICRKGDNEELLLLCDGCDKGCHTYPHRPKITTIPDGDWFCPACIAKA [C34P] and KSIMKVYCQICRKGDNEELLLLCDGCDKGCHTYFHRPKITTIPDGDWFCPACIAKA [C34F] are within error of each other in abundance fitness: -0.675 ± 0.11 for the first, -0.766 ± 0.12 for the second.

First: KSIMKVYCQICRKGDNEELLLLCDGCDKGCHTYVHRPKITTIPDGDWFCPACIAKA [C34V]
Second: KSIMKVYCQICRKGDNEELLLLCDGCDKGCHTYHHRPKITTIPDGDWFCPACIAKA [C34H]
The abundance fitness of the first is lower: -0.771 ± 0.071 for the first, -0.216 ± 0.16 for the second.

KSIMKVYCQICRKGDNEELLLLCDGCDKGCHTYTHRPKITTIPDGDWFCPACIAKA [C34T] and KSIMKVYCQICRKGDNEELLLLCDGCDKGCHTYSHRPKITTIPDGDWFCPACIAKA [C34S] are within error of each other in abundance fitness: -0.694 ± 0.1 for the first, -0.584 ± 0.08 for the second.

KSIMKVYCQICRKGDNEELLLLCDGCDKGCHTYDHRPKITTIPDGDWFCPACIAKA [C34D] and KSIMKVYCQICRKGDNEELLLLCDGCDKGCHTYKHRPKITTIPDGDWFCPACIAKA [C34K] are within error of each other in abundance fitness: -0.63 ± 0.14 for the first, -0.561 ± 0.11 for the second.

KSIMKVYCQICRKGDNEELLLLCDGCDKGCHTYQHRPKITTIPDGDWFCPACIAKA [C34Q] and KSIMKVYCQICRKGDNEELLLLCDGCDKGCHTYAHRPKITTIPDGDWFCPACIAKA [C34A] are within error of each other in abundance fitness: -0.731 ± 0.12 for the first, -0.688 ± 0.088 for the second.

Going from KSIMKVYCQICRKGDNEELLLLCDGCDKGCHTYLHRPKITTIPDGDWFCPACIAKA [C34L] to KSIMKVYCQICRKGDNEELLLLCDGCDKGCHTYGHRPKITTIPDGDWFCPACIAKA [C34G], the abundance fitness rises from -0.763 ± 0.079 to -0.495 ± 0.07.

KSIMKVYCQICRKGDNEELLLLCDGCDKGCHTYYHRPKITTIPDGDWFCPACIAKA [C34Y] and KSIMKVYCQICRKGDNEELLLLCDGCDKGCHTYNHRPKITTIPDGDWFCPACIAKA [C34N] are within error of each other in abundance fitness: -0.659 ± 0.15 for the first, -0.818 ± 0.19 for the second.

KSIMKVYCQICRKGDNEELLLLCDGCDKGCHTYMHRPKITTIPDGDWFCPACIAKA [C34M] showed an abundance fitness of -0.672 ± 0.095.
